Test results published in patent publication US20070238141.

B1: ErbB4 Kinase (intracellular domain, Cell Signaling Technology) (protein)
chain: RRKSIKKKRALRRFLETELVEPLTPSGTAPNQAQLRILKETELKRVKVLGSGAFGTVYKGIWVPEGETVKIPVAIKILNETTGPKANVEFMDEALIMASMDHPHLVRLLGVCLSPTIQLVTQLMPHGCLLEYVHEHKDNIGSQLLLNWCVQIAKGMMYLEERRLVHRDLAARNVLVKSPNHVKITDFGLARLLEGDEKEYNADGGKMPIKWMALECIHYRKFTHQSDVWSYGVTIWELMTFGGKPYDGIPTREIPDLLEKGERLPQPPICTIDVYMVMVKCWMIDADSRPKFKELAAEFSRMARDPQRYLVIQGDDRMKLPSPNDSKFFQNLLDEEDLEDMMDAEEYLVPQAFNIPPPIYTSRARIDSNRSEIGHSPPPAYTPMSGNQFVYRDGGFAAEQGVSVPYRAPTSTIPEAPVAQGATAEIFDDSCCNGTLRKPVAPHVQEDSSTQRYSADPTVFAPERSPRGELDEEGYMTPMRDKPKQEYLNPVEENPFVSRRKNGDLQALDNPEYHNASNGPPKAEDEYVNEPLYLNTFANTLGKAEYLKNNILSMPEKAKKAFDNPDYWNHSLPPRSTLQHPDYLQEYSTKYFYKQNGRIRPIVAENPEYLSEFSLKPGTVLPPPPYRHRNTVV
B2: IGF-1 Receptor Kinase (intracellular domain, Cell Signaling Technology) (protein)
chain: RKRNNSRLGNGVLYASVNPEYFSAADVYVPDEWEVAREKITMSRELGQGSFGMVYEGVAKGVVKDEPETRVAIKTVNEAASMRERIEFLNEASVMKEFNCHHVVRLLGVVSQGQPTLVIMELMTRGDLKSYLRSLRPEMENNPVLAPPSLSKMIQMAGEIADGMAYLNANKFVHRDLAARNCMVAEDFTVKIGDFGMTRDIYETDYYRKGGKGLLPVRWMSPESLKDGVFTTYSDVWSFGVVLWEIATLAEQPYQGLSNEQVLRFVMEGGLLDKPDNCPDMLFELMRMCWQYNPKMRPSFLEIISSIKEEMEPGFREVSFYYSEENKLPEPEELDLEPENMESVPLDPSASSSSLPLPDRHSGHKAENGPGPGVLVLRASFDERQPYAHMNGGRKNERALPLPQSSTC
B3: VEGF Receptor 1 Kinase (intracellular domain, Cell Signaling Technology) (protein)
chain: RKMKRSSSEIKTDYLSIIMDPDEVPLDEQCERLPYDASKWEFARERLKLGKSLGRGAFGKVVQASAFGIKKSPTCRTVAVKMLKEGATASEYKALMTELKILTHIGHHLNVVNLLGACTKQGGPLMVIVEYCKYGNLSNYLKSKRDLFFLNKDAALHMEPKKEKMEPGLEQGKKPRLDSVTSSESFASSGFQEDKSLSDVEEEEDSDGFYKEPITMEDLISYSFQVARGMEFLSSRKCIHRDLAARNILLSENNVVKICDFGLARDIYKNPDYVRKGDTRLPLKWMAPESIFDKIYSTKSDVWSYGVLLWEIFSLGGSPYPGVQMDEDFCSRLREGMRMRAPEYSTPEIYQIMLDCWHRDPKERPRFAELVEKLGDLLQANVQQDGKDYIPINAILTGNSGFTYSTPAFSEDFFKESISAPKFNSGSSDDVRYVNAFKFMSLERIKTFEELLPNATSMFDDYQGDSSTLLASPMLKRFTWTDSKPKASLKIDLRVTSKSKESGLSDVSRPSFCHSSCGHVSEGKRRFTYDHAELERKIACCSPPPDYNSVVLYSTPPI
B4: PDGF Receptor β Kinase (intracellular domain, Cell Signaling Technology) (protein)
chain: RYEIRWKVIESVSSDGHEYIYVDPMQLPYDSTWELPRDQLVLGRTLGSGAFGQVVEATAHGLSHSQATMKVAVKMLKSTARSSEKQALMSELKIMSHLGPHLNVVNLLGACTKGGPIYIITEYCRYGDLVDYLHRNKHTFLQHHSDKRRPPSAELYSNALPVGLPLPSHVSLTGESDGGYMDMSKDESVDYVPMLDMKGDVKYADIESSNYMAPYDNYVPSAPERTCRATLINESPVLSYMDLVGFSYQVANGMEFLASKNCVHRDLAARNVLICEGKLVKICDFGLARDIMRDSNYISKGSTFLPLKWMAPESIFNSLYTTLSDVWSFGILLWEIFTLGGTPYPELPMNEQFYNAIKRGYRMAQPAHASDEIYEIMQKCWEEKFEIRPPFSQLVLLLERLLGEGYKKKYQQVDEEFLRSDHPAILRSQARLPGFHGLRSPLDTSSVLYTAVQPNEGDNDYIIPLPDPKPEVADEGPLEGSPSLASSTLNEVNTSSTISCDSPLEPQDEPEPEPQLELQVEPEPELEQLPDSGCPAPRAEAEDSFL

Target: GST-poly (Glu,Tyr) fused protein
Sequence (chain, as listed by the source): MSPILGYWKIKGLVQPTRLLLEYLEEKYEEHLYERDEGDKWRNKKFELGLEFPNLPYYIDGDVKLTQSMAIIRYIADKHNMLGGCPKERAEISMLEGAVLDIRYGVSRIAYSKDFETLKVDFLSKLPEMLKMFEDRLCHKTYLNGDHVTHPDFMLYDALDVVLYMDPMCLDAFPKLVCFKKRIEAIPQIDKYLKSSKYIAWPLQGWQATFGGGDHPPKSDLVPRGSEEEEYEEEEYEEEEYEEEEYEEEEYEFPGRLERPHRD

| Protein | band of phosphorylated GST-poly (Glu,Tyr) fused protein in Western blotting with anti-phosphotyrosine antibody |
| --- | --- |
| B1 | In “+” of “i” to “vii”, a single band was seen at positions where a phosphorylated GST-poly (Glu,Tyr) fused protein appears |
| B2 | In “+” of “i” to “vii”, a single band was seen at positions where a phosphorylated GST-poly (Glu,Tyr) fused protein appears |
| B3 | In “+” of “i” to “vii”, a single band was seen at positions where a phosphorylated GST-poly (Glu,Tyr) fused protein appears |
| B4 | In “+” of “i” to “vii”, a single band was seen at positions where a phosphorylated GST-poly (Glu,Tyr) fused protein appears |
